Experimental data: the nanobody polyreactivity screen of Harvey et al. (2022)

test: yeast display, Sf9 membrane polyspecificity reagent, FACS + sequencing; frameworks hold sequencing errors
In short: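 A nanobody's polyreactivity label depends on the gate it was sorted from. Yeast display cells were stained with 10% biotinylated, detergent-solubilized Sf9 membrane reagent for 1 hour at 4 °C, enriched on streptavidin microbeads and sorted by FACS. The low and high (top ~1%) gates were set on anti-HA fluorescence for expression and streptavidin fluorescence for reagent binding.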

Sequence	polyreactivity (PSR sort gate)
QVQLVESGGGLVQAGGSLRLSCAAYGSIFGYYAMGWYRQAPVKERALVAAITWSGDSTYYADSVKGRFTISRDNAKNTVYLQMKSLNPEDTAVYYCSARQFVHTRYFSFGYWGQGTQVTVSS	low polyreactivity
QVQLVESGGGLVQAGGSLRLSCAAYGSIFHVYAMGWYRQAPGKERELVAAIDRSGGSTYYADSVKGRFTISRDNAKNTVYLQMNSLKPEDTSVYYCAKDVLGGQITDGVGNDYWGQGTQVTLSS	low polyreactivity
QVQLVESGGGLVQAGGSLRLSCAAYGSIFLYYTMGRYRQAPGKERELVAAISRSGGSTYYADSEKGRFTISRDNALNTVYLQMNSLKPEDTAVYFCGSRSGYIYEYWGQGTQVTVSS	high polyreactivity
QVQLVESGGGLVQAGGSLRLSCAAYGSIFRVYAMGWYREAAGKERELVATISWSAGSTYYADSVKGRFTISRDNAKNTVYLQMNSLKPEDTAVYYCAADPVGYYDPSDYWGQGTQVTVSS	low polyreactivity
QVQLVESGGGLVQAGGSLRLSCAAYGSIFSYNAMGWYRPAPGKERELVAAITKSGGRTYYADSVKGRFTISRANAKNTVYLQMNSLKPEDTAVYYCNARSGSQYDYWGQGTQVTVSS	high polyreactivity
QVQLVESGGGLVQAGGSLRLSCAAYGSIFTGNTMGWYRQATGKERELVATISRRGGSTYYADSVKGRFTISRDNAKNTVYLQMNSLKPEDTAVYYCARGTVYLTWRNDYWGQGTQVTVSS	high polyreactivity
QVQLVESGGGLVQAGGSLRLSCAAYGSIFTRYAMGWYIQAPGKERELVAAISKRGGRTYYADSVKGRFTISRDNAKNTVYLQMNSLKPEDTAVYYCNAGSYDYYDGSWSYDYWGQGTQVTVSS	high polyreactivity
QVQLVESGGGLVQAGGSLRLSCAAYGSIFYFNAMGWYRQAPGKERELVAAITYNGGSTRYADSVKGRFTISRDNAKNTVYLQMNSLKPEDTAVYYCAARAKYGPEDGYWGQGTQVTVSS	high polyreactivity
QVQLVESGGGLVQAGGSLRLSCAAYGSIFYYYAKGWYRQAPGKERELVAAINGGDTYYADSVKGRFTISRDNAKNTVYLHMNSLKPEDTAVYYCAAEGVTVEWDYDYWGQGTQVTVSS	low polyreactivity
QVQLVESGGGLVQAGGSLRLSCAAYGSTFDRNAMGWYRQAPGKERDLVAAISWRGGSTYYSDSVKGRFTISRDNAKNTVYLQMNSLKPDDTAVYYCNKVVTWQGPYDYWGQGTQVTVSS	high polyreactivity
QVQLVESGGGLVQAGGSLRLSCAAYGSTFDRNVMGWYRQAPGKERELVAAISRVSSTNYADSVKGRFTISRDNAKNTVYLQMNSLKPEDTAVYYCAADRPGSIMNYWGQGTQVTVSS	low polyreactivity
QVQLVESGGGLVQAGGSLRLSCAAYGSTFKPYAMGRYRQAPGKERELVADITGGGSTNYADSVKGRFTISRDNAKNTVYLQMNSLKPEDTAVYYCNADPVRSTYSYDYWGQGTQVTVSS	low polyreactivity
QVQLVESGGGLVQAGGSLRLSCAAYGSTFTYYAMGWYRQAPGKERELVAAISSSGGSTYYADSVKGRFTISRDNAKNTVYFQMNSLKPEDTAVYYCAARRKFPYRHDYWGQGTQVTVSS	high polyreactivity
QVQLVESGGGLVQAGGSLRLSCAAYGSTFVSNAMGWSRPAPGKERELVAAISSSGGSTYYADSVKGRFTISRDTATNTVYLQMNSLKPEDTAVYYCVDYYNGYTHNYNYWGQGTQVTVSA	low polyreactivity
QVQLVESGGGLVQAGGSLRLSCAAYGSTFWVYAMVWYRQAPGKERELVAAIDYSGGSTYYADSVKGRFTISRDNAKNNVYLQMNSLKPEDTAVYYCAAGEGQYWLWDGEGEYDYWGQGTQVTVSS	low polyreactivity
QVQLVESGGGLVQAGGSLRLSCAAYGYIFIRNAMGCYRQAPGKERELVAAISWTGGNTYYADSVKGRFTISRDNAKNTVYLQMNSLIPEDTAVYYCAAQRSVFKSFRTTYVSYDYWGQGTQVTVSS	high polyreactivity
QVQLVESGGGLVQAGGSLRLSCADSARTFYTNAKGWYRQAPGKERELVAAITGSDGNTYYADSVKGRFTISRDNAKNTVYLQMISLKPEDTAVYYGYDYWVQGTQVTVSS	low polyreactivity
QVQLVESGGGLVQAGGSLRLSCADSGFIFYFYTKGCYIQSPGKDRELVSGITWLDGSTYYADSVKGRFTISRDNAKNTVYLQMNSLKPEDTAVYYCNRDQWPWESGYAYNYWGQGTQVTVSS	low polyreactivity
QVQLVESGGGLVQAGGSLRLSCADSGFTFVEYAMGWYRQAPGKERELVAAITRSGTRTYYADSVKGRFTISRDNAKNTVYLQMNSLKPEDTAVYYCNKPYSKTNHYDSWGQGTQVTVSS	high polyreactivity
QVQLVESGGGLVQAGGSLRLSCADSGIIFHEYAMGWYRQAPGKERELVASISWNDGSTYADSVKGRFTISRDNAKNTVYLQMNSLKPEDTAVYYCAADYPYYPFSSIYDYWGQGTQVTVSS	low polyreactivity
QVQLVESGGGLVQAGGSLRLSCADSGIIFITNAMGWYRQAPGKERELVAAISSTVSTNYADSVKGRFTISRDNAKNTVYLQMNSLIQEDTAVYFCAAEWGLTQGESIYDFWGQGTQVTVSS	low polyreactivity
QVQLVESGGGLVQAGGSLRLSCADSGIIFNYYAMGWSRQAPGKEREFVASITSSGSSTYYADSVKGRFTITRDNAKNTVYLQMNSLKPEDTAVYYCAARYLWPKQGGGWGYYSCGQGTQVTVSS	high polyreactivity

Sequence	polyreactivity (PSR sort gate)
QVQLVESGGGLVQAGGSLRLSCADSGIIFTQYAMGWYRQAPGKERELVAGISKSGGSTYYADSVKGRFTISRDNAKNTVYLQMNSLKPEDTAVYYCAAPVPKTDKLLRMYYWGQGTQVTVSS	high polyreactivity
QVQLVESGGGLVQAGGSLRLSCADSGITFSRNAMGWYRQAPGKEMELVATITSGGSTNYADSVKGRFTISRDNAKNTVYLQMNSLKPEDTAVYYCNAVWNTFISGRSYDYWGQGTQVTVSS	low polyreactivity
QVQLVESGGGLVQAGGSLRLSCADSGITFWKYAMGWYRQAPGKERELVAAISGRGGSTYYADSVKGRFTISRDNAKNTVYLQMNSLKPEDTAVYYCAKYPGISGYNYWGQGTQVTVSS	high polyreactivity
QVQLVESGGGLVQAGGSLRLSCADSGITLYEYAMGWYRKAPGKERELVAAISTSGGRTRYADSVKGRFTISRDNAKNTVYLQMNSLKPEDTAVYYCAASGFVQISNPRRDYWGLGTQVTVSS	high polyreactivity
QVQLVESGGGLVQAGGSLRLSCADSGLIFKSYAMGWYRQARGKERELVAAISGNDGSTYYADSVKGRFTISRDNAKNTVYLQMNSLKPEDTAVYYCAADFSGPWYEYTFNYCGQGTQVTVSS	high polyreactivity
QVQLVESGGGLVQAGGSLRLSCADSGLIFYRYAMGWYRQAPGTERELVAAISGSVGSTYADSVKGRFTISRDNAKNTVYLQMNSLKPEDTVVYYCSRETYRSYGAYDYWGLGTQVTVSS	low polyreactivity
QVQLVESGGGLVQAGGSLRLSCADSGLILHKYAMGWYRQAPGKDRELVASINSGANTNYADSVKGRFTISRDNAKNTVYLQMNSLKPEDSAEYYCNADPGFRSGEYGYSSFDYWGQGTQVTVSS	low polyreactivity
QVQLVESGGGLVQAGGSLRLSCADSGLTFEGYAMGWNRQAPGKERELVAAITWSGGNTYYADSVKGRFTSSRDNAKKTVYLQMNSLKPEDTAVYYCAAQRPSRDSRPFEYWGQGTQVTVSS	low polyreactivity
QVQLVESGGGLVQAGGSLRLSCADSGRIFFDYAMGWYRQAPGKERELVAAISYRGGDTYYADSVKGRFTISRDNAKNTVYLQMNSLIPEDTAVYYCAATGGYYEYWGQGTQVTVSS	low polyreactivity
QVQLVESGGGLVQAGGSLRLSCADSGRIFGINAKGWYRQAPGKARELVASISRRVGRTSYADSVKGRFTISRDNAKNTVYLQMNSLKPEDTAGYFCAADVWNDGSWTDYDYWGQGTQVTVSS	high polyreactivity
QVQLVESGGGLVQAGGSLRLSCADSGRIFNPYAMGWYRQAPGKERELVAGISWGGGSTRYADSVKGRFTISRDNAKNTVYLQMNSLKPVDTAVYYCNSGSYYKRFDYWGKGTQVTVSS	high polyreactivity
QVQLVESGGGLVQAGGSLRLSCADSGRIFSSNAIGWYRQAPGQERELVASISSTGSTKYADSVKGRFTISRDNAKNTVYVQMNSLKPEDTAVYYCAAGSYLWHFTFDYWGQGTQVTVSS	low polyreactivity
QVQLVESGGGLVQAGGSLRLSCADSGRIFSWNAMGRYRQAPRKERELVAAISSSGARTYYADSVKGRFTISRDNAKNTVYLQMNSLKPEDTAVYYCIAARSSQHYYSYNYWGQGTQVTVSS	high polyreactivity
QVQLVESGGGLVQAGGSLRLSCADSGRIICWYAMGWYRQAPGKERELVAAISTGSRTYYADSVKGRFTISRDNAKTTVYLQMNSLKPEDTAVYYCAASLYSGYVSWGQGTQVTVSS	low polyreactivity
QVQLVESGGGLVQAGGSLRLSCADSGRILPFYAMGWYRQAPGKERELVADISLSGGDTYYADSVKGRFTISRDNAKNTVYLQMNSLKPEDTAVYYCAKDRYQWLWSPEYDYWGQGTQVTVSS	low polyreactivity
QVQLVESGGGLVQAGGSLRLSCADSGRTFGRNVMGWYRQAPGKERELVASITRSGGSTYYADSVKGRFTISRDTAKNTVYLEMNSLKPEDTAVYYCAKCYYLWCSYWGPSQYDWGQGSQVTVSS	high polyreactivity
QVQLVESGGGLVQAGGSLRLSCADSGRTFRFNTRGWYRQAPGKEWVLVASISSSGGRTYYADSVKGRFTISRDNAKNTLYLQMHSLKPEDTAVYYCAAAAGWGARTSTYCGYDYWGQGTQVTVST	high polyreactivity
QVQLVESGGGLVQAGGSLRLSCADSGRTFSTYAMGWYRQAPGKERELVAAISSGGGRTYYADSVKGRFTISRDNAKNTVYLQINSLKPEDTAVYYCAADRYFRSRRSYEYWGQGTQVTVSS	low polyreactivity
QVQLVESGGGLVQAGGSLRLSCADSGRTNPHYAMGWYRQAPGKESEFVAAISSRGGSTYDADSVKGRFTISRDNAKNTVYVQMNSLKPEDTAVYYCAAQYDGLPRVSYGLGEFGYWGQGSQVTVSS	low polyreactivity
QVQLVESGGGLVQAGGSLRLSCADSGSIFAYAMGCSRQAPRKESELVAGISSSGGRTYYADSVKGRFSISRDNAKNTVYLQMNSLKPEDTAVYYCAAKRWGLYKGYYWGQGTQVTVSS	high polyreactivity
QVQLVESGGGLVQAGGSLRLSCADSGSIFDFNTMGWYRQAPGKERELVAAISQRTGRTYYADSVKGRFTISRDNANNTVYLQMNSLKPEDTADYYCAVVWYDKGRQTRYNSWGQGTQVTVSS	high polyreactivity
